Paper PMC4485828 (Oncoimmunology, 2015)

Experiments:
SEC [1] = test: SEC
SEC [2] = biological target: the molecule itself; test: SEC

B1: GD2xCD3-HDD bispecific antibody dimer (GD2xCD3 tsc-BsAb with the HNF1α dimerization domain at the C-terminus) (bispecific antibody)
chain: QVQLQQSGPELVKPGASVKISCKTSGYKFTEYTMHWVKQSHGKCLEWIGGINPNNGGTNYNQKFKGKATLTVDKSSSTAYMELRSLTSEDSAVYYCARDTTVPYAYWGQGTTVTVSSGGGGSGGGGSGGGGSDIELTQSPAIMSASPGEKVTMTCSASSSISYMHWYQQKPGTSPKRWIYDTSKLASSVPARFSGSGSGTSYSLTISSMEAEDAATYYCHQRSSYPLTFGCGTKLEIKRASTKGPGGGGSGGGGSGGGGSQVQLVQSGGGVVQPGRSLRLSCKASGYTFTRYTMHWVRQAPGKGLEWIGYINPSRGYTNYNQKFKDRFTISRDNSKNTAFLQMDSLRPEDTGVYFCARYYDDHYCLDYWGQGTPVTVSSGGGGSGGGGSGGGGSDIQMTQSPSSLSASVGDRVTITCSASSSVSYMNWYQQTPGKAPKRWIYDTSKLASGVPSRFSGSGSGTDYTFTISSLQPEDIATYYCQQWSSNPFTFGQGTKLQITRTPLGDTTHTSGMVSKLSQLQTELLAALLESGLSKEALIQALGEGSGGAP
- percent dimeric (purity by HPLC-SEC) (SEC [1]): 97%
- stoichiometry N (SEC [2]): 2
